Results: article PMC3500399

Biological target: SCR^AxCxA, split Renilla luciferase fusion (Arabidopsis thaliana) (UniProt Q9M384)
Assay: split reporter

UniProt Q9M384, sequence (Q9M384 whole entry, the tested form may be a part): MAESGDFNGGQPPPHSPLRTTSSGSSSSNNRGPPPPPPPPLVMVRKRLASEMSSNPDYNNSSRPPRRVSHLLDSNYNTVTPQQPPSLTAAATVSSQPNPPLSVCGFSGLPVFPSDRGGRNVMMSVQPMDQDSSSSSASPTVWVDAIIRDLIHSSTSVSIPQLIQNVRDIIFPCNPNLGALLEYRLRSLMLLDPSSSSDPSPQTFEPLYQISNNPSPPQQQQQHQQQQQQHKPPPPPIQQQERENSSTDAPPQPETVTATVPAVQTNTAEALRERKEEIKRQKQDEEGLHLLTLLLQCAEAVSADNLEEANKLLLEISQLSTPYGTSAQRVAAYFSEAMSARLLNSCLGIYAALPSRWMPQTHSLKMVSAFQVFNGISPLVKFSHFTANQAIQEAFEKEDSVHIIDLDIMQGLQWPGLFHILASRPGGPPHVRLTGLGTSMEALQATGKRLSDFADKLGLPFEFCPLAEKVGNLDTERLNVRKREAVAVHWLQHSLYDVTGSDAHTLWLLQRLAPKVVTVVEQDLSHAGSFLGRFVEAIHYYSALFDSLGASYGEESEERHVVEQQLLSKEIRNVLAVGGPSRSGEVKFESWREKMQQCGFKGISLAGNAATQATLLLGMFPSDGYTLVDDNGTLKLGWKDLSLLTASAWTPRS

percent of the RBR-SCR interaction (split Renilla luciferase): 11%
B1: RBR, split Renilla luciferase fusion (natural protein)
chain: MEEVQPPVTPPIEPNGKRSEASLLDICEKVLSLDGSTCDEALKLFTETKRILSASMSNIGSGTREEVERFWFAFILYSVKRLSVRKEADGLSVSGDNEFNLCQILRALKLNIVDFFKELPQFVVKAGSVLGELYGADWENRLQAKEVQANFVHLSLLSKYYKRGFREFFLTYDANAEKNSANSSTYLLDSYRFGWLLFLALRNHAFSRFKDLVTCSNGVVSILAILIIHVPCRFRNFSIQDSSRFVKKGDKGVDLVASLCKIYDASEDELRIVIDKANNLVETILKKKPSPASECQTDKLDNIDPDGLTYFEDLLEETSISTSLITLEKDYYDGKGELDERVFINEEDSLLGSGSLSAGAVNITGVKRKIDALSSPARTFISPLSPHKSPAAKTNGISGATKLAATPVSTAMTTAKWLRTVISPLLPKPSPGLEHFLKSCDRDITNDVTRRAHIILEAIFPNSSLGAQCGGGSLQAVDLMDDIWAEQRRLEACKLYYRVLEAMCKAEAQILHANNLNSLLTNERFHRCMLACSAELVLATHKTITMLFPAVLERTGITAFDLSKVIESFIRHEDSLPRELRRHLNSLEERLLESMVWEKGSSMYNSLIVARPSLALEINQLGLLAEPMPSLDAIAALINFSDGANHASSVQKHETCPGQNGGIRSPKRLCTDYRSILVERNSFTSPVKDRLLALGNVKSKMLPPPLQSAFASPTRPNPGGGGETCAETGINIFFTKINKLAAVRINGMVERLQLSQQIRESVYCFFQHVLAQRTSLLFSRHIDQIILCCFYGVAKISQMSLTFREIIYNYRKQPQCKPLVFRSVYVDALQCRRQGRIGPDHVDIITFYNEIFIPAVKPLLVELGPVRNDRAVEANNKPEGQCPGSPKVSVFPSVPDMSPKKVSAVHNVYVSPLRGSKMDALISHSTKSYYACVGESTHAYQSPSKDLSAINNRLNNSSSNRKRTLNFDAEAGMVSDSMVANSLNLQNQNQNQNGSDASSSGGAAPLKTEPTDS
